Experimental findings from the Immune Epitope Database (IEDB) are described below.

One experiment deals with HLA-A*03:01. Briefly: IEDB peptide-MHC binding, purified MHC/competitive/radioactivity; filed as Kd, often an IC50 or EC50 that approximates it; ≥ and ≤ were set here for values at or beyond the usual limits of such assays. The settings on record: source organism: Human immunodeficiency virus type 1 (JRCSF ISOLATE).
MTKILEPFR: the Kd is 13.8 µM.

In the next experiment the target is HLA-A*11:01. Described as above. The note with it: source organism: Human immunodeficiency virus type 1 (JRCSF ISOLATE).
Take QMVHQAISPR: the Kd came out at 6 µM.

In a further experiment the target is HLA-A*03:01. The experiment can be described thus: IEDB peptide-MHC binding, purified MHC/competitive/radioactivity; ≥ and ≤ were set here for values at or beyond the usual limits of such assays. The note with it: source organism: Human immunodeficiency virus type 1 (JRCSF ISOLATE).
For AIFQSSMTK, the IC50 is 0.01 µM.

For the sequence AVFIHNFKR, the IC50 stood at 0.0647 µM.

For the sequence KIQNFRVYYR, the IC50 was determined as 0.344 µM.

As for MAVFIHNFK, the half-inhibitory concentration (IC50) was 0.647 µM.

In the case of MVHQAISPR, the IC50 is 0.0611 µM.

Turning to NTPVFAIKK, the IC50 was 0.333 µM.

Take QMAVFIHNFK: the IC50 stood at 0.0092 µM.

Regarding QMVHQAISPR, the IC50 amounted to 0.423 µM.

For the sequence TIKIGGQLK, the IC50 was 0.0407 µM.

Take TLFCASDAK: the IC50 came out at 0.118 µM.

Take TTLFCASDAK: the IC50 turned out to be 0.12 µM.

Take YLAWVPAHK: the IC50 came to 0.143 µM.

The next experiment deals with HLA-A*11:01. Described as above. The settings on record: source organism: Human immunodeficiency virus type 1 (JRCSF ISOLATE).
On to AVFIHNFKR, for which the concentration for half-maximal inhibition (IC50) came out at 0.0033 µM.

As to MAVFIHNFK, the IC50 is 0.02 µM.

Turning to MVHQAISPR, the IC50 amounted to 0.0896 µM.

Turning to NTPVFAIKK, the IC50 was determined as 0.1 µM.

For the sequence TIKIGGQLK, the IC50 turned out to be 0.182 µM.

Consider TTLFCASDAK, for which the IC50 turned out to be 0.0273 µM.

A word on the Kd: it is the equilibrium constant for the complex coming apart. A word on the IC50: it is the concentration needed to halve the response being measured.
